Data taken from the supplement of paper PMC11316812.
± gives the standard deviation of the averaged measurements.

Columns and labels:
[1] = system: MCF7; test: percentage of EdU-negative (G0-arrested) nuclei per well, 72 h; higher = more G0 arrest; details: reference: sequence is the full UniProt precursor, the tested protein was the secreted form or ectodomain
[2] = system: hTERT-HMEC; test: as above; details: reference: sequence is the full UniProt precursor, the tested protein was the secreted form or ectodomain
[3] = protein concentration 0.0225 µM
[4] = protein concentration 0.01325 µM
[5] = protein concentration 0.1325 µM
[6] = protein concentration 0.0155 µM
[7] = protein concentration 0.01025 µM
[8] = protein concentration 0.1025 µM
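Note: secreted proteins added to cultured cells, EdU pulse at the end, nuclei found by Hoechst imaging, EdU status from nuclear versus surrounding ring intensity ratio, PBS as neutral control.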

| Sequence | percentage of EdU-negative [1, 3] | percentage of EdU-negative ([1]; protein concentration 0.225 µM) | percentage of EdU-negative [2, 3] | percentage of EdU-negative ([2]; protein concentration 0.225 µM) | also measured |
| --- | --- | --- | --- | --- | --- |
| MTTQLRVVHLLPLLLACFVQTSPKQEKMKMDCHKDEKGTIYDYEAIALNKNEYVSFKQYVGKHILFVNVATYCGLTAQYPELNALQEELKPYGLVVLGFPCNQFGKQEPGDNKEILPGLKYVRPGGGFVPSFQLFEKGDVNGEKEQKVFSFLKHSCPHPSEILGTFKSISWDPVKVHDIRWNFEKFLVGPDGIPVMRWSHRATVSSVKTDILAYLKQFKTK | 26.1 ± 1.7% | 27.7 ± 0.58% | 5.29 ± 0.31% | 7.84 ± 0.53% |  |
| MTTWSLRRRPARTLGLLLLVVLGFLVLRRLDWSTLVPLRLRHRQLGLQAKGWNFMLEDSTFWIFGGSIHYFRVPREYWRDRLLKMKACGLNTLTTYVPWNLHEPERGKFDFSGNLDLEAFVLMAAEIGLWVILRPGPYICSEMDLGGLPSWLLQDPGMRLRTTYKGFTEAVDLYFDHLMSRVVPLQYKRGGPIIAVQVENEYGSYNKDPAYMPYVKKALEDRGIVELLLTSDNKDGLSKGIVQGVLATINLQSTHELQLLTTFLFNVQGTQPKMVMEYWTGWFDSWGGPHNILDSSEVLKTVSAIVDAGSSINLYMFHGGTNFGFMNGAMHFHDYKSDVTSYDYDAVLTEAGDYTAKYMKLRDFFGSISGIPLPPPPDLLPKMPYEPLTPVLYLSLWDALKYLGEPIKSEKPINMENLPVNGGNGQSFGYILYETSITSSGILSGHVHDRGQVFVNTVSIGFLDYKTTKIAVPLIQGYTVLRILVENRGRVNYGENIDDQRKGLIGNLYLNDSPLKNFRIYSLDMKKSFFQRFGLDKWSSLPETPTLPAFFLGSLSISSTPCDTFLKLEGWEKGVVFINGQNLGRYWNIGPQKTLYLPGPWLSSGINQVIVFEETMAGPALQFTETPHLGRNQYIK [Q8IW92] |  |  |  |  | percentage of EdU-negative [1, 4]: 23.6 ± 0.28%; percentage of EdU-negative [1, 5]: 27.7 ± 0.33%; percentage of EdU-negative [2, 4]: 4.88 ± 0.97%; percentage of EdU-negative [2, 5]: 9.63 ± 0.41% |
| MTVARPSVPAALPLLGELPRLLLLVLLCLPAVWGDCGLPPDVPNAQPALEGRTSFPEDTVITYKCEESFVKIPGEKDSVICLKGSQWSDIEEFCNRSCEVPTRLNSASLKQPYITQNYFPVGTVVEYECRPGYRREPSLSPKLTCLQNLKWSTAVEFCKKKSCPNPGEIRNGQIDVPGGILFGATISFSCNTGYKLFGSTSSFCLISGSSVQWSDPLPECREIYCPAPPQIDNGIIQGERDHYGYRQSVTYACNKGFTMIGEHSIYCTVNNDEGEWSGPPPECRGKSLTSKVPPTVQKPTTVNVPTTEVSPTSQKTTTKTTTPNAQATRSTPVSRTTKHFHETTPNKGSGTTSGTTRLLSGHTCFTLTGLLGTLVTMGLLT |  |  |  |  | percentage of EdU-negative [1, 6]: 26.2 ± 1%; percentage of EdU-negative ([1]; protein concentration 0.155 µM): 26.1 ± 1.8%; percentage of EdU-negative [2, 6]: 4.51 ± 0.44%; percentage of EdU-negative ([2]; protein concentration 0.155 µM): 7.07 ± 0.42% |
| MTVFLSFAFLAAILTHIGCSNQRRSPENSGRRYNRIQHGQCAYTFILPEHDGNCRESTTDQYNTNALQRDAPHVEPDFSSQKLQHLEHVMENYTQWLQKLENYIVENMKSEMAQIQQNAVQNHTATMLEIGTSLLSQTAEQTRKLTDVETQVLNQTSRLEIQLLENSLSTYKLEKQLLQQTNEILKIHEKNSLLEHKILEMEGKHKEELDTLKEEKENLQGLVTRQTYIIQELEKQLNRATTNNSVLQKQQLELMDTVHNLVNLCTKEGVLLKGGKREEEKPFRDCADVYQAGFNKSGIYTIYINNMPEPKKVFCNMDVNGGGWTVIQHREDGSLDFQRGWKEYKMGFGNPSGEYWLGNEFIFAITSQRQYMLRIELMDWEGNRAYSQYDRFHIGNEKQNYRLYLKGHTGTAGKQSSLILHGADFSTKDADNDNCMCKCALMLTGGWWFDACGPSNLNGMFYTAGQNHGKLNGIKWHYFKGPSYSLRSTTMMIRPLDF |  |  |  |  | percentage of EdU-negative [1, 7]: 25.2 ± 0.66%; percentage of EdU-negative [1, 8]: 26.4 ± 0.81%; percentage of EdU-negative [2, 7]: 4.915 ± 0.017%; percentage of EdU-negative [2, 8]: 8.6 ± 2% |
| MTVLAPAWSPTTYLLLLLLLSSGLSGTQDCSFQHSPISSDFAVKIRELSDYLLQDYPVTVASNLQDEELCGGLWRLVLAQRWMERLKTVAGSKMQGLLERVNTEIHFVTKCAFQPPPSCLRFVQTNISRLLQETSEQLVALKPWITRQNFSRCLELQCQPDSSTLPPPWSPRPLEATAPTAPQPPLLLLLLLPVGLLLLAAAWCLHWQRTRRRTPRPGEQVPPVPSPQDLLLVEH | 25 ± 0.85% | 25.7 ± 0.9% | 5 ± 0.57% | 5.47 ± 0.61% |  |
| MVAALLGGGGEARGGTVPGAWLCLMALLQLLGSAPRGSGLAHGRRLICWQALLQCQGEPECSYAYNQYAEACAPVLAQHGGGDAPGAAAAAFPASAASFSSRWRCPSHCISALIQLNHTRRGPALEDCDCAQDENCKSTKRAIEPCLPRTSGGGAGGPGAGGVMGCTEARRRCDRDSRCNLALSRYLTYCGKVFNGLRCTDECRTVIEDMLAMPKAALLNDCVCDGLERPICESVKENMARLCFGAELGNGPGSSGSDGGLDDYYDEDYDDEQRTGGAGGEQPLDDDDGVPHPPRPGSGAAASGGRGDLPYGPGRRSSGGGGRLAPRGAWTPLASILLLLLGPLF | 24.6 ± 0.7% | 26.9 ± 0.34% | 4.96 ± 0.62% | 5.68 ± 0.97% |  |
